Experimental findings from patent US20060110789 are described below.

The series has as its target diketide-ACP4(Ø) (DEBS ACP4 without linker, loaded with diketide), Q03132.

diketide-ACP4(Ø) (DEBS ACP4 without linker, loaded with diketide), Q03132, sequence (Q03132 other isoform, or with tags, fused parts or gaps): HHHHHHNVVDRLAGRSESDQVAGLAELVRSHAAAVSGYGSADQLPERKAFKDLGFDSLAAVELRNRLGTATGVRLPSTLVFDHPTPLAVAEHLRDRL

B1: (5)M2+TE (module 2 of DEBS with the N-terminal linker of module 5, fused to thioesterase) (protein)
chain: MSGDNGMTEEKLRRYLKRTVTELDSVTARLREVEHRAGIAIVGMACRLPGEVDSPERLWELITSGRDSAAEVPDDRGWVPDELMASDAAGTRAHGNFMAGAGDFDAAFFGISPREALAMDPQQRQALETTWEALESAGIPPETLRGSDTGVFVGMSHQGYATGRPRPEDGVDGYLLTGNTASVASGRIAYVLGLEGPALTVDTACSSSLVALHTACGSLRDGDCGLAVAGGVSVMAGPEVFTEFSRQGALSPDGRCKPFSDEADGFGLGEGSAFVVLQRLSDARREGRRVLGVVAGSAVNQDGASNGLSAPSGVAQQRVIRRAWARAGITGADVAVVEAHGTGTRLGDPVEASALLATYGKSRGSSGPVLLGSVKSNIGHAQAAAGVAGVIKVLLGLERGVVPPMLCRGERSGLIDWSSGEIELADGVREWSPAADGVRRAGVSAFGVSGTNAHVIIAEPPEPEPVPQPRRMLPATGVVPVVLSARTGAALRAQAGRLADHLAAHPGIAPADVSWTMARARQHFEERAAVLAADTAEAVHRLRAVADGAVVPGVVTGSASDGGSVFVFPGQGAQWEGMARELLPVPVFAESIAECDAVLSEVAGFSVSEVLEPRPDAPSLERVDVVQPVLFAVMVSLARLWRACGAVPSAVIGHSQGEIAAAVVAGALSLEDGMRVVARRSRAVRAVAGRGSMLSVRGGRSDVEKLLADDSWTGRLEVAAVNGPDAVVVAGDAQAAREFLEYCEGVGIRARAIPVDYASHTAHVEPVRDELVQALAGITPRRAEVPFFSTLTGDFLDGTELDAGYWYRNLRHPVEFHSAVQALTDQGYATFIEVSPHPVLASSVQETLDDAESDAAVLGTLERDAGDADRFLTALADAHTRGVAVDWEAVLGRAGLVDLPGYPFQGKRFWLLPDRTTPRDELDGWFYRVDWTEVPRSEPAALRGRWLVVVPEGHEEDGWTVEVRSALAEAGAEPEVTRGVGGLVGDCAGVVSLLALEGDGAVQTLVLVRELDAEGIDAPLWTVTFGAVDAGSPVARPDQAKLWGLGQVASLERGPRWTGLVDLPHMPDPELRGRLTAVLAGSEDQVAVRADAVRARRLSPAHVTATSEYAVPGGTILVTGGTAGLGAEVARWLAGRGAEHLALVSRRGPDTEGVGDLTAELTRLGARVSVHACDVSSREPVRELVHGLIEQGDVVRGVVHAAGLPQQVAINDMDEAAFDEVVAAKAGGAVHLDELCSDAELFLLFSSGAGVWGSARQGAYAAGNAFLDAFARHRRGRGLPATSVAWGLWAAGGMTGDEEAVSFLRERGVRAMPVPRALAALDRVLASGETAVVVTDVDWPAFAESYTAARPRPLLDRIVTTAPSERAGEPETESLRDRLAGLPRAERTAELVRLVRTSTATVLGHDDPKAVRATTPFKELGFDSLAAVRLRNLLNAATGLRLPSTLVFDHPNASAVAGFLDICCAGTAAISGPHEFTRLAGALRGIAPVRAVPQPGYEEGEPLPSSMAAVAAVQADAVIRTQGDKPFVVAGHSAGALMAYALATELLDRGHPPRGVVLIDVYPPGHQDAMNAWLEELTATLFDRETVRMDDTRLTALGAYDRLTGQWRPRETGLPTLLVSAGEPMGPWPDDSWKPTWPFEHDTVAVPGDHFTMVQEHADAIARHIDAWHHHHHH
On to B1, for which the “kcat/KM, fold decrease against diketide-ACP4(4) with the same module” value was “the kcat/KM values drop approximately 70-300 fold”.
